# According to the supplement of paper PMC10724198:
# ± gives the standard deviation of the averaged measurements.
# Tested on: Saccharomyces cerevisiae
# Experiment: protein stability index of tFT-peptide fusion (C-terminal peptide) (PSI (0-1 scale)); higher = more stable (slower turnover)
# Conditions: genetic background: wild type; temperature: 30 C
# 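Further: PSI is a weighted mean of sequencing reads over stability bins, variants kept only with over 10 reads, mCherry proximal and sfGFP distal, peptide attached via GGGS linker.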
sequence,measurement,value
WRGGAWVRGCVL,protein stability index,0.74 ± 0.04
SLREEATLVRAR,protein stability index,0.563 ± 0.019
LQFGHGDFRSTV,protein stability index,0.713 ± 0.093
KKKKKKKEKKAK,protein stability index,0.644 ± 0.042
GWRGGCRSGVPE,protein stability index,0.665 ± 0.064
RQVSRLFQGKKN,protein stability index,0.707 ± 0.03
PEYGSGCNCLGS,protein stability index,0.664 ± 0.0073
PVFPLTLPAFSS,protein stability index,0.815 ± 0.018
TPHQPPPPRPSP,protein stability index,0.7057 ± 0.0037
DLKGCVTFCTSI,protein stability index,0.638 ± 0.049
LTPSVRDKRPPI,protein stability index,0.759 ± 0.055
SRCSAGVASGVL,protein stability index,0.636 ± 0.0069
GVVNSGVFGINS,protein stability index,0.693 ± 0.054
VWVSHPWYMAFL,protein stability index,0.618 ± 0.066
PCFLLPLPHTPP,protein stability index,0.707 ± 0.024
SRAARLPLFYFD,protein stability index,0.675 ± 0.014
LMSGFFCGLLYA,protein stability index,0.6181 ± 0.0029
GLNTKAQSRIPM,protein stability index,0.742 ± 0.018
HKAPLLQLTADM,protein stability index,0.662 ± 0.028
RLDDFSALPPRY,protein stability index,0.781 ± 0.064
FVRWCFGRRVLG,protein stability index,0.619 ± 0.0027
PPSPPAPSPTPP,protein stability index,0.721 ± 0.038
TLSPAPPPPLPP,protein stability index,0.636 ± 0.093
TPAYTETNGLST,protein stability index,0.73 ± 0.042
KKNHTQIKEVPR,protein stability index,0.6943 ± 0.00099
PNPLCQPPTGRP,protein stability index,0.705 ± 0.14
KWETAAGSSDGP,protein stability index,0.6993 ± 0.0032
RKKTQQKTQNIQ,protein stability index,0.67 ± 0.024
PSISSTSPLPRP,protein stability index,0.633 ± 0.039
RLFHYPPPRHSY,protein stability index,0.61 ± 0.043
IFFFFHSPYFFS,protein stability index,0.68 ± 0.018
PPAPLPLAPSSL,protein stability index,0.722 ± 0.042
FGLWSSCGWWWT,protein stability index,0.64 ± 0.041
LGSSQVGLVRRV,protein stability index,0.663 ± 0.011
VGGCVVSFSANR,protein stability index,0.657 ± 0.043
WIRTCMLIQGQT,protein stability index,0.736 ± 0.021
FLLSILPFISFC,protein stability index,0.527 ± 0.1
VHVSRHGSSIAF,protein stability index,0.74 ± 0.008
ALFVVLSGLSLR,protein stability index,0.616 ± 0.017
PDVNLVRRVMSL,protein stability index,0.596 ± 0.053
TVPAKQHLSGYE,protein stability index,0.679 ± 0.011
PPAPRLPPPLPP,protein stability index,0.629 ± 0.021
FFPLRLLPLVPR,protein stability index,0.645 ± 0.0063
ISIVKENSSLTC,protein stability index,0.6552 ± 0.0053
RTTDPHNRPIRP,protein stability index,0.6552 ± 0.0047
SLNLFFYVNPRF,protein stability index,0.686 ± 0.06
WSRVQFFYFCWI,protein stability index,0.547 ± 0.051
FPPYHTSSGFDA,protein stability index,0.733 ± 0.066
SLGRLKSLRSAR,protein stability index,0.685 ± 0.017
LYVTYVPYTYAT,protein stability index,0.665 ± 0.012
GRRGRWCAGQWG,protein stability index,0.6743 ± 0.0062
FIHVPAYGNVCV,protein stability index,0.611 ± 0.058
SGGVRDDFLWVL,protein stability index,0.728 ± 0.016
MGGDATSLKRLV,protein stability index,0.703 ± 0.0091
PNVAIMSGGQTV,protein stability index,0.6912 ± 0.0059
PPPTPSGPHPAP,protein stability index,0.672 ± 0.028
PFVGFSLLWLGF,protein stability index,0.567 ± 0.017
PLVVETNRFGDV,protein stability index,0.6988 ± 0.004
RKKREKREKETN,protein stability index,0.598 ± 0.026
RGARGIGVRLRV,protein stability index,0.651 ± 0.026
LPAHLLPPSSPS,protein stability index,0.741 ± 0.03
GSNRTLSLYCVG,protein stability index,0.633 ± 0.016
FFSISPLLPLPF,protein stability index,0.714 ± 0.2
EANEENNSSKRD,protein stability index,0.686 ± 0.03
LLTGPYRCIPLV,protein stability index,0.608 ± 0.039
PPLPSPPAPPAP,protein stability index,0.655 ± 0.0086
DSMLACIHPSPI,protein stability index,0.708 ± 0.0064
IGLCGWVSGAAT,protein stability index,0.7274 ± 0.0069
PPPPTSPTSPEL,protein stability index,0.692 ± 0.051
PPPARPAPLSPP,protein stability index,0.692 ± 0.08
LRSRTPPSPHFP,protein stability index,0.626 ± 0.0069
LLCHAGRTPRPP,protein stability index,0.646 ± 0.013
GPGCDDDASGSV,protein stability index,0.686 ± 0.013
GCVGGWLGEGIG,protein stability index,0.627 ± 0.035
SRVRTIVRNGSR,protein stability index,0.777 ± 0.11
GGVRRSPRAILR,protein stability index,0.705 ± 0.014
KKKKFQDQKIDE,protein stability index,0.629 ± 0.0068
PLPRLSPFSHPP,protein stability index,0.701 ± 0.052
SSSLSRLIPRDV,protein stability index,0.774 ± 0.062
MLMFSASAVWGG,protein stability index,0.556 ± 0.048
GREGKEKKKPRR,protein stability index,0.696 ± 0.097
GIGKADSKRERS,protein stability index,0.652 ± 0.00097
GRGRDDKTYKKT,protein stability index,0.669 ± 0.031
LIRVSPDVNITA,protein stability index,0.622 ± 0.066
SVRSVFVFGVIK,protein stability index,0.664 ± 0.017
PPLPSPPQPYSA,protein stability index,0.639 ± 0.013
IMKRNKKIKREI,protein stability index,0.711 ± 0.024
VCLFPDTMSWDC,protein stability index,0.803 ± 0.075
PGSAVSFLLTFR,protein stability index,0.646 ± 0.012
YPPRLPSILPFP,protein stability index,0.696 ± 0.046
PRIFPDPVFPSL,protein stability index,0.688 ± 0.046
IDLGWSRWGALA,protein stability index,0.662 ± 0.086
VGKVRGLEAVEE,protein stability index,0.683 ± 0.0052
CRGLRRSLGSIL,protein stability index,0.682 ± 0.063
EFEDCGAWGNIG,protein stability index,0.621 ± 0.039
GSSPCHNEESGT,protein stability index,0.693 ± 0.014
LLESTAHGKGIR,protein stability index,0.683 ± 0.022
GAGSGTRQPKPR,protein stability index,0.617 ± 0.0076
RHVCPLLYPCSS,protein stability index,0.635 ± 0.036
GTRAETQWSVGM,protein stability index,0.682 ± 0.013
CGVHQSRATPMS,protein stability index,0.663 ± 0.032
